# Assay: soluble on expression in E. coli; label from the status in PepcDB or PDB records
row,Sequence,soluble on expression in E. coli
1,MSLSDQTLQDILRYLTEETGLAPFQVANTVELLREGGTVPFIARYRKERTGELDEVGIRGIEERLAYFTELEERKLTVLKSIEEQGKLTPELADRIRTSRQKTEVEDLYLPYKPKRRTKATIARERGLEPLADLMAAQELTAGTPEEATLPFVDPAGEVPDAAAALEGAGHILAERLADDADARAFVRRLTADQGIFCSRVAADRKGAVTKFEMYYDHREPLKSVPSHRMLAMRRGEKEEVLVLTIEAPTEEILAGLRARIAGRASIFRQLLEGAAEDAYKRLIAPSIEVELRLEAKQRADEAAITVFAQNLRNLLLAPPAGGKRVLGVDPGLRTGSKLAAVDGTGRFLEHVTIYPHAGGEGKVAAAKREFLRLVECHGIEMVAVGNGTAGREMEQFAKETLAEGGKRIPVVMVSEAGASVYSASEIAREEFPDLDLTVRGAISIARRLQDPLAELVKIDPKSIGVGQYQHDVDQRALKKSLDAVVESCVNYVGVDLNTASWALLSYVSGVGPSLARAIVRHRDEHGPFPARRALMKVPRFGDKAFEQAAGFLRIRGGEHPLDATAVHPERYPVVEAMATDLGVSLSQLAADPALPARIDLKRYVTDAVGLPTLRDIMEELKKPGRDPREEFRTAAFRDDVTEIGDLKEGMVLQGVVTNVTAFGAFVDVGVHQDGLVHVSHLSVKFVKDPAEAVRVGQVVQVKVLSVDVQRKRISLSIREAAPGGAPRSTEGHHHHHH,soluble
2,MSLSELGLGDPERPLDAVLHGFSISQSETIGRRTEMEDVTMIIKDFASYRRGRSSYRGAKCHESGHKEILLGIFDGHGGTECSSMVGDLFPVAFADALNSVLYAAQLNHAYDLPDSVWEPLFVGVFLRLDDTLRLKNIQSGSTAAICFILDNLVVSANCGDSRTVLTRDEAMIKSFGCDSMLYKVEGPTRSSRINEISSGSLLQLEQSQTAQLSGHAIINSARYFMNPEETSEEALVSAKRRGKRVEGLSLRLSKDHKPDDPTETRRIEASGGYVHGGRVMGTLSVCRSFGDFVYKPSISVVPFVSVYHFRTYDAWIVIACDGCWDSISDIDAAMLLSTCLSSQAGALKLRDEAYRLNSQDNISVITVRLYLEEGHHHHHH,soluble
3,MSLSELSVLSAETAISFHEMDLEILKESQKALREEAGGKEEVEETVENPNPIVFIAVDDQNLPNGEEEDSFIFEKLQFRVKQVMENGTRRVYLSVQATTPAEWQLLVQLRIKTGCQSNILNVVDKDVYKFDSFSYPLNVEIQNSDVKFLKFEMRVLNLMYLDLPTFEEGDEVIEFDDGSRIRVHSNILSLLSDYLGKSEKEYASRTDCPAIKATCSEKEAFLELLYQAYPTRRPIFASFRRLTAGAVGYKCDNLIYQLSKHLIDYNYRPMTFLQRFQAAIENRLEPAISELAFRAALDGTWNQMIQSGFEPENFCGRQVYTKIVCPAILLARNAKPDATTLKKPENNLKFIELEEGDTTKSAILFRGTIFYINSGILAAHGKEMLCIGQNGEYIARYTAEFHRECARGDLIPGEVLVQLLTYMHPMGEVPHPDMIRACIVFAFDHGWNIVKENLENEFEPPITPDEYMSQLMFGDKFDLKNLLRVNIQRAESSCRELAEVLERHGKLKILKDRTHEGIMDRMCSGWGLNPMVNRLSTRFPTTFHHRTVNLQRGKAVVVGEGRAVDTLNSLASDHAFGEPTELIVVD,not soluble
4,MSLSENIAAYVGLDVHKETLAVAIAAPERLGEVRYYGTINNEAQAVRRLFQKLQGLYGNILSCYEAGPCGFGLYHQLTAMNIKCQVIAPSRIPKSPTDRIKNDHRDAISLARLLRAGELTPVWIPDLTHEAMRDLIRARAAAKRDSRVARQRILSMLLRTDKHYAGKHWTGKHRTWLANQSFSQPSQQIAFQHYCQSLEQIEDRILQLDQEISRLLPEWSLCNLVCQLQALKGVGQLIAITLVAELGDFSRFSNPKQLMAFLGLVPGEYSSGNSIRPRGITKVGNSELRRLLYEAAWSYRTPAKVGAWLIYYRPDSVTQYSKDIAWKAQQRLCSRYRSLTAKGKKSQVAITAVARELTGFMWDIALAAQSSFSQQKQNEGHHHHHH,soluble
5,MSLSESVIADFVGKFNSEVAGRGDPIRGRVVLSQKRLVLAASEDDKLTIPLDSIFDIAVGQVPPDLGDFFDSTVTIAFEHRGKRLVAAIEAGDEKIEKFGTVLFKAIINGTETTVKERARVGGRVTEESFKTAKLFLTPGNVEFRRSDGSFNVDLKTVSDFDRNTREINGKGRPVLTVRHMKDGTAMTTLAAMASNRKMSILGRYLRREYAELMEEIEDVDLTKDKKEVLVAMYSTGDMDGMPLASILGKDSSQVSMILQDLAADGLVQDGSDGPTLTPTGKVVASRHLEDVNAEGHHHHHH,not soluble
6,MSLSETATQAPQPANVLLEVNDLRVTFATPDGDVTAVNDLNFTLRAGETLGIVGESGSGKSQTAFALMGLLATNGRIGGSATFNGREILNLPERELNTLRAEQISMIFQDPMTSLNPYMRVGEQLMEVLMLHKGMSKAEAFEESVRMLDAVKMPEARKRMKMYPHEFSGGMRQRVMIAMALLCRPKLLIADEPTTALDVTVQAQIMTLLNELKREFNTAIIMITHDLGVVAGICDKVLVMYAGRTMEYGKARDVFYQPVHPYSIGLLNAVPRLDSEGAEMLTIPGNPPNLLRLPKGCPFQPRCPHAMEICNNAPPLEAFSPGRLRACFKPVEELL,not soluble
7,MSLSEVDIAKADPAAASHPLLLNGDATVAQKNPGSVAENNLCSQYEEKVRPCIDLIDSLRALGVEQDLALPAIAVIGDQSSGKSSVLEALSGVALPRGSGIVTRCPLVLKLKKLVNEDKWRGKVSYQDYEIEISDASEVEKEINKAQNAIAGEGMGISHELITLEISSRDVPDLTLIDLPGITRVAVGNQPADIGYKIKTLIKKYIQRQETISLVVVPSNVDIATTEALSMAQEVDPEGDRTIGILTKPDLVDKGTEDKVVDVVRNLVFHLKKGYMIVKCRGQQEIQDQLSLSEALQREKIFFENHPYFRDLLEEGKATVPCLAEKLTSELITHICKSLPLLENQIKETHKRITEELQKYGVDIPEDENEKMFFLIDKINAFNQDITALMQGEETVGEEDIRLFTRLRHEFHKWSTIIENNFQEGHKILSRKIQKFENQYRGRELPGFVNYRTFETIVKQQIKALEEPAVDMLHTVTDMVRLAFTDVSIKNFEEFFNLHRTAKSKIEDIRAEQEREGEKLIRLHFQMEQIVYCQDQVYRGALQKVREKELEEEKKKKSWDFGAFQSSSATDSSMEEIFQHLMAYHQEASKRISSHIPLIIQFFMLQTYGQQLQKAMLQLLQDKDTYSWLLKERSDTSDKRKFLKERLARLTQARRRLAQFPGEGHHHHHH,soluble
8,MSLSFQMKYDIRLRFEVEGIVEKTDVIGAIFGQTENLFGDEFDLRELQDKGRLGRIIVEVKTKGGKSEGEIIIPSNLDRIETALIAAMVESVDKVGPYNSKFELIEIEDIRAEKLKKIIERAKGILSSWSKEKSLDIKEVINEISSAVKVGEITEYGPERLPAGPDVDKDPNLIIVEGRADVINLLRYGYKNVIAVEGATSRIPETLINLSKMKKTVIAFLDGDHGGDLILKELLSNNVKIDFVARAPIGREVEELTGKEIAKALSNMMPLTQYLKKVQEAEQAIAKNVIAKEEKPIQSETTQQVVQITLPQNILEEIKKLPGTLEGVLYDNNWNLIEKVQVRDIIPKLEAYEDNKVAYIIFDGVITQRLLDLASQKNIKMIIGARIGGINKRPQNVDILTFTDIISSEGHHHHHH,soluble
9,MSLSGETELTFWTFSGLHEQFYVEMVKEWNKKYPDRKIKLNTVVYPYGQMHDNLSISLIAGEGVPDIADVELARFSNFLKGSDIPLADLTPLIEKDRDKFVEARLTLYSKNGKLYGLDTHVGTTVMFYNMDVMKKAGVNPDDIKTWDDYHKAGQKVRKVTGKPMGTVETNDSATFLSMISQQNSGYFDKNGKLILNNDTNVKTLQYLKDMINDKTMIPAPGGGHHSEEYYGFMNQGGAASVLMPIWYMGRFIDYMPDLKGKIAIRPLPAWKEGGDRSAGLGGTATVVPKQSKHVELAKEFLAFAKGSEEGNKKLWSVLGFDPLRWDVWSSKELKEKNKYTDYFQNGTGIFSVLLDIKDEINPIYLHEDFAKASDLVNRSVLFDALKSQQKTPKQALDRAAGELKQKEGHHHHHH,soluble
10,MSLSGTITFSTGTRAGVYQKYGELLRTELRKDMPGLDVRLMTSAGSQENVERVASGEADFTIAAADAVETYKLAGSPGAEGLRGVTRLYDDYVQLVVPSDSDIQSVRDLRGKRVAIGLPNSGVRLIATRLLKAVGIDPETDITPRADGIDTGPGRLGDELDAFFWSGGVPTDGLKEIAESSAFRFVPIGDDLVTKLHRSGGATRYYRTTNMPESAYPTVQNGAVVPTMAVSNLLVTRADVDPRLTEWLTRTVLDSRDGIGAHVHSAQLVDLRTAIYTDPLELHEGARRYYRSVKEGHHHHHH,soluble
11,MSLSINIKAVTDDNRAAILDLHVSQNQLSYIESTKVCLEDAKECHYYKPVGLYYEGDLVGFAMYGLFPEYDEDNKNGRVWLDRFFIDERYQGKGLGKKMLKALIQHLAELYKCKRIYLSIFENNIHAIRLYQRFGFQFNGELDFNGEKVMVKELEGGSHHHHHH,soluble
12,MSLSIRLHIWGDYACFTRPEMKVERVSYDVMTPSAARGILEAIHWKPAIRWHIDRLHVLKPIRFQSIRRNEVGAKASASNAKSAMKKGSTEGLGIVVDENRQQRAAMVLTNVAYVIEAHFTMTEKAGPEDTPAKHLSMFNRRAAKGQCFHRPCLGTREFAAEFALLGENDPLPEAKPRLEVRDDDFGWMLHDIDFASGRNESHFFRAVMKDGVIEVPPFKSGEVVKEGHHHHHH,soluble
13,MSLSKIKEIRTKVYQWNGKTVPPQNNFCTNASDLLYEKSDAMGSFRFHEWLICEVETNDGHIGIGNAALAPQLVKNTIDTYLKPLVVGEDPFDYAYIWEKMYRKTLNWGRRGLGMVAISAIDIAIWDVLGKITNKPVFKLLGGRTKEKIPVYASKLYAQPLKQLQEEAEKYKNEGFKMFKSRMGWGPKDGSEGMKKNLQLLEAVREVIGEDTDLMVDCYMGWNLDYTKRMLPKMAKFNLRWLEEPVHADDIHGYAELNNMNIIPISGGEHEFNLFGFKQLLELNAVSYIQYDNNRVGGFTVAQKINALAEAYQIPVVPHAGQMHNYHLTMSNFNCPISEFFPVHEVEVGNELFYYIFEGDPAPVDGMIDLDDNTPGLGLKVTDKYKSDFKIIEEGHHHHHH,soluble
14,MSLSKIKSVRTRVWNWTGPTVPPTGNFCTNASDVLWDKGDAMSSFRFHQWLTCEVETDDGTIGIGNAALAPTVVKKAIDDWFAPMVIGEDPFDYAYLWEKMYRRSHAWGRKGIGMTAISAVDLAIWDLMGKLTGKPVFKLLGGRTKEKIPVYYSKLYSGPIDTMQAEAEEARKNNYPGYKMRFGWGPKDGMAGMRENLKRVEAVREVIGYDVDLMLECYQGWNLDYTKRMLPKLVKYEPRWLEEPVIADDVEGYRELNAMNIVPISGGEHEFSVIGCKDLIEKKAVSVLQYDTNRVGGITAAQKINAIAEAFQVPVIPHAGQMHNYHLTMANANCMISEYFPVFDVEVGNELFYYIFEGDPAAVDGFLDLDDNIPGLGISITDKYLKHFEIQEEGHHHHHH,soluble
15,MSLSKILIAGCGDLGLELARRLTAQGHEVTGLRRSAQPMPAGVQTLIADVTRPDTLASIVHLRPEILVYCVAASEYSDEHYRLSYVEGLRNTLSALEGAPLQHVFFVSSTGVYGQEVEEWLDEDTPPIAKDFSGKRMLEAEALLAAYSSTILRFSGIYGPGRLRMIRQAQTPEQWPARNAWTNRIHRDDGAAFIAYLIQQRSHAVPERLYIVTDNQPLPVHDLLRWLADRQGIAYPAGATPPVQGNKKLSNARLLASGYQLIYPDYVSGYGALLAAMREGHHHHHH,soluble
16,MSLSKILPVVTACLLATTMGASASSIPEKASVCSGCHGQDGMGQPNIAPMIAGLNANYLNTQIELFLSGERQNVVMQGMAKELSDPAVRKEVMNYFANLPSYEFTNPEQRGDQADIRNPYRKLIFQGDWDRNIPACATCHGASGMGVDKFPRLASQHADYLKTQLMAWKIGTRSGDPLNMMGTIAKNLTDEEIENLSYYFASLRYEGHHHHHH,not soluble
